Data taken from US20120039806A1 (BURNET INSTITUTE, published 2012).

Columns and labels:
[1] = biological target: T1, GST-RNF41FL (full length RNF41 as glutathione S-transferase fusion protein) (human, UniProt Q5R7T5 1-317 (Pongo abelii entry)); assay: pull-down on glutathione beads, anti-FLAG Western blot
T1 construct: Expressed in BL21 (DE3) E. coli, solubilised with Sarcosyl and immobilised on Glutathione-Sepharose 4B; also called GST-RNF41 fusion protein; not shown: glutathione S-transferase (GST) of a modified pGEX-2T vector (GE Healthcare)
T1 sequence: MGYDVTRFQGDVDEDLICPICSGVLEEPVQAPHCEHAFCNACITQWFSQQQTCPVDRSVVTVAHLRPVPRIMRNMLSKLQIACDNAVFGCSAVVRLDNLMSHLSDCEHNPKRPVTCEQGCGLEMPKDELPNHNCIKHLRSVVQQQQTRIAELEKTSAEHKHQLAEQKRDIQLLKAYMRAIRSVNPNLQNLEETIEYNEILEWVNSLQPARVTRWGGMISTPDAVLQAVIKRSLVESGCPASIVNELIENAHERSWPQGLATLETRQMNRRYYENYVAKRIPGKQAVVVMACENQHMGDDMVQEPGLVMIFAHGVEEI
Description: (§1) Glutathione Sepharose resin coupled with either GST or GST-RNF41 proteins was resuspended in the binding buffer (0.2% NP-40 and 2% glycerol in 20 mM Tris-buffered saline, pH 7.5 containing complete protease inhibitor cocktail mixture (Roche) and 1 mM PMSF) and mixed with 1 μg/m purified FLAG-tagged soluble Clec9A (also in binding buffer) and incubated at 4° C. on a rotating wheel for 2 hours. The beads were washed extensively with the binding buffer to remove unbound proteins. Bound proteins were eluted from the beads by the addition of 2×SDS reducing sample and heated at 92° C. for 5 minutes. The eluted proteins were separated by SDS-PAGE followed by Western blot with anti-FLAG antibody.
(§2) The inventors subcloned and expressed full length RNF41 (RNF41FL), and RNF41 transcript variant 2 (RNF41₇₂₋₃₁₇) as GST-RNF41 fusion proteins in bacterial cells. The fusion proteins were immobilized onto glutathione beads, and incubated with mClec9A-ecto or with the control mClec12A-ecto. mClec9A-ecto directly bound to both GST-RNF41FL and GST-RNF41₇₂₋₃₁₇, but not to GST alone (FIG. 13). […] This confirmed that mClec9A binds specifically to RNF41.

[2] = biological target: T2, GST-RNF41 72-317 (RNF41 transcript variant 2 as glutathione S-transferase fusion protein) (human, UniProt Q5R7T5 72-317 (Pongo abelii entry), N-terminal GST fusion, immobilised on Glutathione-Sepharose beads; carrier not in the letters); assay: as above
T2 construct: Expressed in BL21 (DE3) E. coli and immobilised on Glutathione-Sepharose 4B; not shown: GST carrier (glutathione S-transferase of the modified pGEX-2T vector) and any linker at the N end
T2 sequence: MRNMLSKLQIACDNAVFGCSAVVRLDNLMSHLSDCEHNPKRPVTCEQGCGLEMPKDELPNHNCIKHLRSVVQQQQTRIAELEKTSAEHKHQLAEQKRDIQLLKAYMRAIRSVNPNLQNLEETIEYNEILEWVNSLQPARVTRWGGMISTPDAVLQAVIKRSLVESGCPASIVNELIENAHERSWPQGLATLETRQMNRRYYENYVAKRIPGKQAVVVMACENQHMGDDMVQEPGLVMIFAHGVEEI
Description: as §1, §2

[3] = biological target: T3, membrane bound mouse 5B6 on transiently transfected 293T cells (full length untagged m5B6, pIRES-Neo) (mouse); assay: flow cytometry on transiently transfected live 293T cells, soluble FLAG-tagged protein
T3 construct: also called mouse Clec9A
T3 chain: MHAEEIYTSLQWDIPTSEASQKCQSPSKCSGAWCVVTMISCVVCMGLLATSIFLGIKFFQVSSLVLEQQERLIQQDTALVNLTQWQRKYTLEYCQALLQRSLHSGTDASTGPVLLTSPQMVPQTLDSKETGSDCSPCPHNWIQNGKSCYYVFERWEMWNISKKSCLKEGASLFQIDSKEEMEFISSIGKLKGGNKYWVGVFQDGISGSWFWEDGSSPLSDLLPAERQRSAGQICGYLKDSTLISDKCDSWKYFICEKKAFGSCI
Description: (§3) Two-three days later, cells were harvested and surface immunofluorescence labeled using either (1) soluble FLAG-tagged biotinylated m5B6, h5B6 and Cire, and detected with Streptavidin PE, or (2) soluble FLAG-tagged 5B6, biotinylated anti-FLAG mAb 9H10, and Streptavidin-PE. Live cells were gated on forward and side scatter, or by propidium iodide exclusion and analysed for their surface binding of soluble 5B6.

[4] = biological target: T4, membrane bound human 5B6 on transiently transfected 293T cells (full length untagged h5B6, pIRES-Neo) (human, UniProt Q6UXN8 1-241); assay: as above
T4 construct: also called human CLEC9A
Description: as §3

[5] = biological target: T5, RNF41 isoform encoded by RNF41 transcript variant 2 (Accession number NM-194358), GST-tagged, on the … (human, UniProt Q5R7T5 72-317 (Pongo abelii entry)); assay: human protein microarray (ProtoArray v4.1), biotinylated probe, Streptavidin-Alexa Fluor647
T5 construct: A bought array (Invitrogen); also called isoforms of RNF41; not shown: GST tag of the array protein
T5 sequence: T2 sequence
Description: Biotinylated purified soluble mClec9A-ecto and Cire (control) were diluted to 50 μg/ml in Casein Washing Buffer (Invitrogen) and hybridised to Human protein microarrays using the “ProtoArray Human Protein Microarray v4.1 Protein-Protein Interaction (PPI) kit for biotinylated proteins” (Invitrogen, #PAH05241011) as per manufacturer's instructions. Binding of the biotinylated proteins was detected using Streptavidin-Alexa Fluor647, and images acquired using a fluorescence microarray scanner (GenePix4000B scanner, Axon Instruments). Positive interactions were identified using the ProtoArray Prospector software (Invitrogen).

[6] = biological target: T6, Spectrin (purified from human erythrocytes, Sigma, #S3644) (human, UniProt P02549 1-2419; P11277 2-2137); assay: ELISA, spectrin coated, biotinylated soluble protein, SA-HRP
T6 construct: mature; A bought native preparation; also called purified spectrin
Description: ELISA plates (Costar, Broadway, Cambridge, UK) were coated overnight at 4° C. with […] of Spectrin (purified from human erythrocytes, Sigma, #S3644) or Actin (Sigma). Unbound proteins were washed away (PBS, 0.05% Tween-20), and the ELISA plates blocked with PBS, 1% BSA. Serially diluted biotinylated purified mClec9A-ecto, mClec9A-CTLD and Cire soluble proteins were plated (PBS, 1% BSA) and incubated at 4° C. overnight. Bound soluble proteins were detected using Streptavidin-HRP and visualised using ABTS.

[7] = biological target: T7, GST protein (control, plasmid control) (UniProt P08515 1-218 = GST); assay: pull-down on glutathione beads, anti-FLAG Western blot
T7 construct: also called GST alone; GST control
Description: as §1, §2

T4 sequence (Q6UXN8 whole entry): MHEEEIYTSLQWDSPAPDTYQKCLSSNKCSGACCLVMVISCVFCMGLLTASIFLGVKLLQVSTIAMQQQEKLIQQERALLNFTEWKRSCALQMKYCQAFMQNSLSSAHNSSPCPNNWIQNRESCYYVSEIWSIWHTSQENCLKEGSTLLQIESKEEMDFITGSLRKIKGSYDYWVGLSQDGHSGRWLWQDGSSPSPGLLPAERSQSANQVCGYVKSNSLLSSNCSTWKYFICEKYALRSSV
T6 sequence (P02549 whole entry, chain 1 of 2): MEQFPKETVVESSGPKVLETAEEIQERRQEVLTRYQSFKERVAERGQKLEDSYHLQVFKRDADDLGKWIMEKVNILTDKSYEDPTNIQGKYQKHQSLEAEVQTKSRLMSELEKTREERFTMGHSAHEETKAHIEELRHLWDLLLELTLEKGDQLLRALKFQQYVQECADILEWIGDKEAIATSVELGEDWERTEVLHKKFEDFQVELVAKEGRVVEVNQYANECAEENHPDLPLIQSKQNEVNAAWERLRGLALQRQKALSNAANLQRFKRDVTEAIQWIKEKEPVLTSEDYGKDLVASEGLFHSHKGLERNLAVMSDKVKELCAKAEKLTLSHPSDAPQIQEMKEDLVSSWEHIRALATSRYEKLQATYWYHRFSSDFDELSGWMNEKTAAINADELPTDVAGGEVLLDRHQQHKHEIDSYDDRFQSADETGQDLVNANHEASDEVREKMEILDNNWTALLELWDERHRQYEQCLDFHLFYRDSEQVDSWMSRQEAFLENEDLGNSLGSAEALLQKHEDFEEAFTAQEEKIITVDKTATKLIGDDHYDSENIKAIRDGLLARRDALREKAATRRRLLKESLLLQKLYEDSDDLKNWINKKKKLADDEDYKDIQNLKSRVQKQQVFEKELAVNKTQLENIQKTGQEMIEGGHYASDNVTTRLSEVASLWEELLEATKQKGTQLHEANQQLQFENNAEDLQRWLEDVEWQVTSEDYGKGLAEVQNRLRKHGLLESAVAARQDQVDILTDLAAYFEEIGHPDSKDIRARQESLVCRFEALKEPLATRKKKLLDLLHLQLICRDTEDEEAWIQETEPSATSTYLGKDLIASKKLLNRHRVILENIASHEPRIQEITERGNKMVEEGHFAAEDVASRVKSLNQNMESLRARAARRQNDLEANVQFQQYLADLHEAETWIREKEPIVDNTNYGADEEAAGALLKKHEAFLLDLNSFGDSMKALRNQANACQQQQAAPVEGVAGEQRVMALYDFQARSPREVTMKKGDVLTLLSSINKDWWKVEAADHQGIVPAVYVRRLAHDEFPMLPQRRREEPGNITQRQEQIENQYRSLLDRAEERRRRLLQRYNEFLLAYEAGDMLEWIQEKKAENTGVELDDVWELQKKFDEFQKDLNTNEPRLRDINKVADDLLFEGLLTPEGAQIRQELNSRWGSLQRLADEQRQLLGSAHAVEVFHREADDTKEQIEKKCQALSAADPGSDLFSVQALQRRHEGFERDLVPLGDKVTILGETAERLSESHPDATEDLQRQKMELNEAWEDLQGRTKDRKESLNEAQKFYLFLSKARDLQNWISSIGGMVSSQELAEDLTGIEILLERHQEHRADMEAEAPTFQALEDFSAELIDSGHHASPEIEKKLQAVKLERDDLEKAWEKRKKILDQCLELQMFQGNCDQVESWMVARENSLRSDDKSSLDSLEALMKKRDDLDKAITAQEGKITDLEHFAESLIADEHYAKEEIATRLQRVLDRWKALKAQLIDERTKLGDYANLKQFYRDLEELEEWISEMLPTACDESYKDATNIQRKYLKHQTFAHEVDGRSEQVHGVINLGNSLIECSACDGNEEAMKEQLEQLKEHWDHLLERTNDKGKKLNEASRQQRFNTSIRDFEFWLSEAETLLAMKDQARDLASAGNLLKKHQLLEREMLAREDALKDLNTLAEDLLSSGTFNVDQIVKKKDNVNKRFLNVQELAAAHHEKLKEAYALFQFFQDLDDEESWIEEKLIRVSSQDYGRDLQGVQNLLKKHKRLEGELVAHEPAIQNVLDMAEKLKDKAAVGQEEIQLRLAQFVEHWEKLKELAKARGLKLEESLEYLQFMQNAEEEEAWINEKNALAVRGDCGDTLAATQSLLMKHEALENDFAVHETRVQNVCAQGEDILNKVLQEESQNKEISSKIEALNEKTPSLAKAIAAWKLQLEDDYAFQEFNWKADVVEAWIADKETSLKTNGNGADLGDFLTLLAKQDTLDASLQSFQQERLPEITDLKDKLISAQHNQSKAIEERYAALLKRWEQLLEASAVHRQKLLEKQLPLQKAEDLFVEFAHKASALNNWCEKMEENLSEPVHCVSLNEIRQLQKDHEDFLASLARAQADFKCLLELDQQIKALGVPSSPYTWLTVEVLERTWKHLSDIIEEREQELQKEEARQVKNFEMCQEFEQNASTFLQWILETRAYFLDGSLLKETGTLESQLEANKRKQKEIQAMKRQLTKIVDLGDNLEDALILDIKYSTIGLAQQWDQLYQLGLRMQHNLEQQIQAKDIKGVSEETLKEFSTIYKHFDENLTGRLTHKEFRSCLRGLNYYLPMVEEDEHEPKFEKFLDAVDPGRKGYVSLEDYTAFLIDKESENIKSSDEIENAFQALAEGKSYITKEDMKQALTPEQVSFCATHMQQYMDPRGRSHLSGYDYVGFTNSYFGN
T6 sequence (P11277 2-2137, chain 2 of 2): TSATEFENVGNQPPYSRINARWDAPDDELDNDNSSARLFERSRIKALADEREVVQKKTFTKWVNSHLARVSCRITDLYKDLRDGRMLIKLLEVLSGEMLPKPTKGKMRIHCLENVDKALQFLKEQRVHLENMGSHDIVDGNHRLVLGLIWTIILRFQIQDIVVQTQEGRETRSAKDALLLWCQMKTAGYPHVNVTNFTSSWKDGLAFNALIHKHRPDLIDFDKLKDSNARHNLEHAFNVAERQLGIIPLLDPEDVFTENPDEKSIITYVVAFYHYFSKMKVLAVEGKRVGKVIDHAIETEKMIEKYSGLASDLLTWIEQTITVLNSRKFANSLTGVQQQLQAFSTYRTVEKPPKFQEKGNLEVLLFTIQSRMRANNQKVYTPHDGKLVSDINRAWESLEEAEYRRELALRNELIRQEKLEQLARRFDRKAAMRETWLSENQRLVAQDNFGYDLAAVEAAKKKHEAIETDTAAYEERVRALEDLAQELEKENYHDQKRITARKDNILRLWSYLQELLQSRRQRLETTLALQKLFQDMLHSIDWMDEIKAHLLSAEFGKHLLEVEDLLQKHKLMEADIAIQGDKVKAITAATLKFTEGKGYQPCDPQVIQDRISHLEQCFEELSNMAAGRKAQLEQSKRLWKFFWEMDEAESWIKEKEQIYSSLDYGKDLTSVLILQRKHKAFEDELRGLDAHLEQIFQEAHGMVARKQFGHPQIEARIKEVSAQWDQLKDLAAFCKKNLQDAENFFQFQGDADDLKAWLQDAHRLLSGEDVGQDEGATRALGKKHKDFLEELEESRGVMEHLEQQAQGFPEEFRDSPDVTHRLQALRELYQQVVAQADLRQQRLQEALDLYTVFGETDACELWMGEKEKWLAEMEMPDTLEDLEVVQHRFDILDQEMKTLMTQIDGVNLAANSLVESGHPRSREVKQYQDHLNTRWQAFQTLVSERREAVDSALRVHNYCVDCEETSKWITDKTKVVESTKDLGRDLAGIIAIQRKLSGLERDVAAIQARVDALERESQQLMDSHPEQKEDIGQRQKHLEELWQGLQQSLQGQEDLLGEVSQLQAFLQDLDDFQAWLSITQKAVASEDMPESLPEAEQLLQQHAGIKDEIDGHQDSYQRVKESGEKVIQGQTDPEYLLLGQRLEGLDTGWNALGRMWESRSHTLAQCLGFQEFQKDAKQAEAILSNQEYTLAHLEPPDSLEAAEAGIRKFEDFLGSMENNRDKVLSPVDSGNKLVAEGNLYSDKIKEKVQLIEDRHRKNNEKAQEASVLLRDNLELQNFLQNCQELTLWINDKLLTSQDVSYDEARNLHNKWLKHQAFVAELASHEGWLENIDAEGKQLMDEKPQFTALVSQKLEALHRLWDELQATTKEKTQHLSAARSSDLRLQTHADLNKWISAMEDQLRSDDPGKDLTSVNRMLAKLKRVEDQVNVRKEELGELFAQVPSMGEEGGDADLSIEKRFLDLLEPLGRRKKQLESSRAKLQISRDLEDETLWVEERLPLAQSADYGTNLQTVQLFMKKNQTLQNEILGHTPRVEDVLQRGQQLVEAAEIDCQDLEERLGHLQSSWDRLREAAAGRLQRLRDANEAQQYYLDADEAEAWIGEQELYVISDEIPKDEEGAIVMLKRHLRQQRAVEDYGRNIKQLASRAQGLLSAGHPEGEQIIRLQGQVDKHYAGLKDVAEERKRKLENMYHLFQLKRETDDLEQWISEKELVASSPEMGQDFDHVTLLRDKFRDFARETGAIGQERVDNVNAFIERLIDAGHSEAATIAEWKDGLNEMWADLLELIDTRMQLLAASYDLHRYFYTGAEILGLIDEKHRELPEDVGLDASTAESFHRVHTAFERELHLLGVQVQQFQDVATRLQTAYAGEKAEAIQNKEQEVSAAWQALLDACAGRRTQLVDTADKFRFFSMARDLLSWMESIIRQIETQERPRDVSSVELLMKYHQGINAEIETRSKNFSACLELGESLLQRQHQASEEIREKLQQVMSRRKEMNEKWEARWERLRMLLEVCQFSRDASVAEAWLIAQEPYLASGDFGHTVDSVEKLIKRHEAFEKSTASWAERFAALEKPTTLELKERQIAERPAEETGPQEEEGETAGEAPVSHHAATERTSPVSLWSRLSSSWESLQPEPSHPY

B1: mClec12A-ecto (soluble FLAG-tagged mouse Clec12A, control) (receptor, not shown: small tags and cut ends)
chain (part 1 of 2): NSGLHHILDAQKMVWNHR
chain (part 2 of 2): YTTLATEMIKSNQLQRAKEELQENVFLQLKHNLNSSKKIKNLSAMLQSTATQLCRELYSKEPEHKCKPCPKGSEWYKDSCYSQLNQYGTWQESVMACSARNASLLKVKNKDVLEFIKYKKLRYFWLALLPRKDRTQYPLSEKMFLSEESERSTDDIDKKYCGYIDRVNVYYTYCTDENNIICEETASKVQLESVLNGLPEDSR
notes: extracellular domain; Control lectin
[1]
  binding result: no binding (tested: 1 µg/m)
[2]
  binding result: no binding (tested: 1 µg/m)

B2: hCLEC9A-ecto (tagged soluble ectodomain human Clec9A; stalk and CTLD) (receptor)
chain: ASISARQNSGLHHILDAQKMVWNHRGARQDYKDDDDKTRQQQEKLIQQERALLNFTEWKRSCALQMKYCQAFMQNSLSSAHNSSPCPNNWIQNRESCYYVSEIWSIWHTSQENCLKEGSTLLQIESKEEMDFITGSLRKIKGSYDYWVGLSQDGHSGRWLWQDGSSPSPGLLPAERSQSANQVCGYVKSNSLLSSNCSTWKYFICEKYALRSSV
notes: also called soluble FLAG-tagged h5B6; soluble human 5B6
[3]
  binding result: binds
[4]
  binding result: binds

B3: Cire-ecto (soluble FLAG-tagged C-type lectin Cire, control) (receptor, mouse, not shown: small tags and cut ends)
chain (part 1 of 2): NSGLHHILDAQKMVWNHR
chain (part 2 of 2): VKVYKIPSSQEENNQMNVYQELTQLKAGVDRLCRSCPWDWTHFQGSCYFFSVAQKSWNDSATACHNVGAQLVVIKSDEEQNFLQQTSKKRGYTWMGLIDMSKESTWYWVDGSPLTLSFMKYWSKGEPNNLGEEDCAEFRDDGWNDTKCTNKKFWICKKLSTSCPSK
modifications: biotinylated with BirA where the filing says 'biotinylated' (ELISA, microarray)
notes: extracellular domain; Control lectin; The construct is described only as similar to the Clec9A constructs; also called mouse Cire/mDCSign; biotinylated Cire-ecto
[5]
  binding result: no binding (tested: 50 µg/ml)
[6]
  binding result: no binding

B4: mClec9A-ecto (tagged soluble ectodomain mouse Clec9A; stalk and CTLD) (receptor)
chain: ASISARQNSGLHHILDAQKMVWNHRGARQDYKDDDDKTREQQERLIQQDTALVNLTQWQRKYTLEYCQALLQRSLHSGTDASTGPVLLTSPQMVPQTLDSKETGSDCSPCPHNWIQNGKSCYYVFERWEMWNISKKSCLKEGASLFQIDSKEEMEFISSIGKLKGGNKYWVGVFQDGISGSWFWEDGSSPLSDLLPAERQRSAGQICGYLKDSTLISDKCDSWKYFICEKKAFGSCI
modifications: enzymatically biotinylated with BirA at the biotinylation consensus sequence where the filing says 'biotinylated' (ELISA, protein microarray); unbiotinylated FLAG-tagged protein in the pull-down and in FIG. 6
notes: also called soluble FLAG-tagged m5B6; soluble mouse 5B6
[7]
  binding result: no binding (tested: 1 µg/m)
[3]
  binding result: binds
[4]
  binding result: binds
